Data reported in patent publication US20260356955 (published 2026).
Residue numbers refer to the chain shown, from its start.

T1: cynomolgus KLRB1 ECD (cynomolgus)
T1 chain: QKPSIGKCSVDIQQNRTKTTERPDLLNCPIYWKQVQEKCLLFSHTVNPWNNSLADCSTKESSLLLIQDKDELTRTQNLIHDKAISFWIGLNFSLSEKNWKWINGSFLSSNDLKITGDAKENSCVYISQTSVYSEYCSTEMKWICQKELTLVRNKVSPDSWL

T2: cynomolgus KLRB1 on CHO-K1 (cynomolgus)
T2 chain: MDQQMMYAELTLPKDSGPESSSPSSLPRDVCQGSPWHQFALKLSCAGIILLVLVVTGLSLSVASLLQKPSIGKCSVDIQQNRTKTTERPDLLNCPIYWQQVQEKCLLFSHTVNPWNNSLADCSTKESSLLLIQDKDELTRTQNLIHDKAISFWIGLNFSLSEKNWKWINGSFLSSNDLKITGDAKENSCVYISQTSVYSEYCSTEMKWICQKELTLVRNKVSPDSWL

B1: Hu50A8F2-01 (antibody, V domains shown)
VH: QVQLVQSGAEVKKPGASVKVSCKASGYTFIDYYINWVRQAPGQGLEWMGWIFPGSGHTKYNENFKGRVTMTRDTSTSTVYMELSSLRSEDTAVYYCARGDRSALGYFDYWGQGTTVTVSS
VL: DIQMTQSPSSLSASVGDRVTITCTASSSVSSTYLHWYQQKPGKAPKLLIYSTSNLASGVPSRFSGSGSGTDFTLTISSLQPEDFATYYCHQYHRSPLTFGQGTKLEIK
B2: Hu50A8F2-06 (antibody, V domains shown)
VH: B1 VH with R67K, R72V
VL: B1 VL with F72Y
B3: Hu50A8F2-03 (antibody, V domains shown)
VH: B1 VH
VL: B1 VL with M4L, A44S, F72Y
B4: 50A8F2 chimeric (antibody, V domains shown)
VH: QIQLQQSGPELVKPGASVKISCKASGYTFIDYYINWVKQKPGQGLEWIGWIFPGSGHTKYNENFKGKATLTVDTSSSTAYMHLSSLTSEDTAVYFCARGDRSALGYFDYWGQGSTLTVSS
VL: QIVLTQSPAIMSASLGERVTMTCTASSSVSSTYLHWYQQKPGSSPKLWIYSTSNLASGVPARFSGSGSGTSYSLTFSSMEAEDAATYYCHQYHRSPLTFGAGTKLELK
B5: 47A5H2 chimeric (antibody, V domains shown)
VH: QVQLQQPGAELVRPGASVKLSCKGSGYSFTGYWMHWVKQRPGQGLEWIGMIHPSDSETRLNQKFKDKATLTVDKSSSTTYMQLSSPTSEDSAVYYCASEGLRRGSFAYWGQGTLVTVSA
VL: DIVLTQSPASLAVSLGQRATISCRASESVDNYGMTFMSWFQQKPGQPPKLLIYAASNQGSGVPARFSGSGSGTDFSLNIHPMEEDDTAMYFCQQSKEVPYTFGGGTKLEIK
B6: Hu47A5H2-07 (antibody, V domains shown)
VH: QVQLVQSGAEVKKPGASVKVSCKASGYSFTGYWMHWVRQAPGQGLEWMGMIHPSDSETRLNQKFKDRVTMTVDTSTSTVYMELSSLRSEDTAVYYCASEGLRRGSFAYWGQGTLVTVSS
VL: DIVLTQSPDSLAVSLGERATINCRASESVDNYGMTFMSWFQQKPGQPPKLLIYAASNQGSGVPDRFSGSGSGTDFTLTISSLQAEDVAVYYCQQSKEVPYTFGQGTKLEIK
B7: 39C5D6 (antibody, V domains shown)
VH: QVQLKESGPGLVAPSQSLSITCTVSGFSLTDYGVNWVRQTPGKGLEWLGMIWGDGSTDYNLPLKSRLSITKDNSKSQVFLKMNSLQTDDTARYYCARTYANYHYWYFDVWGAGTTVTVSS
VL: DIQMTQSPASLSASVGETVTITCRASGNIHNYLAWYQQKQGKSPQLLVYNAKTLEDGVPSRFSGSGSGTQYSLKINSLQPDDFGNYFCQHFWSTPYTFGGGTKLEIK
B8: 7B6C7 chimeric (antibody, V domains shown)
VH: B7 VH with T30N, T40P, G44A, L61S, P62A, S68T, Q86H, Y94F, A100N, N101Y
VL: B7 VL with A34S, K52E, E55A, S77N, D81E, N85S, F87Y
B9: 37G6A7 (antibody, V domains shown)
VH: B7 VH with T40P, L61S, P62A, S68T, T70S, A100G, N101T
VL: B7 VL with N50I, E55A, D81E, N85T, F87Y
B10: 62H1D6 (antibody, V domains shown)
VH: QVQLQQSGPELVRPGVSVKISCKGSGYTFTDYAMHWVKQSHAKSLEWIGVISTYYGNTNYNQKFKGRATMTVDKSSSTAYMELARLTSEDSAIYYCAREYGNYPYYYAMDYWGQGTSVTVSS
VL: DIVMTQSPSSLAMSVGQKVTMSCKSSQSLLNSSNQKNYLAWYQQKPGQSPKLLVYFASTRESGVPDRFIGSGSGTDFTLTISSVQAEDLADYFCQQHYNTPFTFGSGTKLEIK
B11: 92E12F2 (antibody, V domains shown)
VH: DVQLQESGPGLVKPSQSLSLTCSVTGYSITSGYYWNWIRQFPGNKLEWLGYISYDGSNNDNPSLTNRISISRDTSRNQFFLKFNSVTTDDSATYYCARGDFYGYVYWGQGTTLTVSS
VL: DIVLTQSPASLAVSLGQRATISCRASKSVSSSGYTYLHWYQQKPGQPPKLLIYLTSNLDSGVPARFSGSGSGTDFTLNIHPVEEEDAATYYCQHSRELPRTFGGGTKLEIK
B12: 57E2E4 chimeric (antibody, V domains shown)
VH: DVQLQESGPGLVKPSQSLSLTCSVTGYSISSGYYWNWIRQFPGNKLEWMAYISYDGSNNYNPSLKNRVSITRDTSKNQFFLRLNSVTAEDTATYYCTRGDFYGYVYWGQGTTLTVSL
VL: B11 VL with S28R, S31T, G33D, T35S, L37M, T55A, D59E, L98F
B13: 13H2D11 (antibody, V domains shown)
VH: B5 VH with G24A, G31S, H35N, T79A, L101F
VL: not shown
B14: 66G9C11 (antibody, V domains shown)
VH: HVQLQQSGPELVRPGASVKLSCKASGYIFFTFWMNWVKQRPGQGLEWIGQIFPASGSTNYNEMFEGKATLTVDTSSSTAYMQLSSLTSEDSAVYYCASLERAWFAYWGQGTLVTVSA
VL: DIVLTQSPATLSVTPGDRVSLSCRASQSINNYLHWYQQKSHESPRLLIKYASQSISGIPSRFSGSGSGADFTLSINSVETEDFGMYFCQQSNSWPPTFGGGTKLEIK
B15: Hu22F10G3-3.4 (antibody, V domains shown)
VH: QVQLQESGPGLVKPSQTLSLTCTVSGYSLTSDFAWNWIRQHPGKGLEWMGDIRYSGSTDYNPSLKGRSTISRDTSKNQFSLKLSSVTAADTAVYYCARGGYYGYDEGYPMDYWGQGTLVTVSS
VL: DIVMTQSPDSLAVSLGERATISCRASESVDVYGNSFMHWYQQKPGQPPKLLIYLAFNLKSGVPARFSGSGSGTDFTLTISSLQAEDVATYYCQQNNEDPFTFGQGTKLEIK
B16: Hu22F10G3-1.1 (antibody, V domains shown)
VH: B15 VH with M49I, S68V, R72V
VL: B15 VL with S22N, A64D, T89V
B17: Hu22F10G3-2.3 (antibody, V domains shown)
VH: B15 VH with S68V
VL: B15 VL with A64D, T89V
B18: 22F10G3 chimeric (antibody, V domains shown)
VH: DVQLQESGPGQVKPSQSLSLTCTVTGYSLTSDFAWNWIRQFPGNRLEWMGDIRYSGSTDYNPSLKGRSSITRDTSKNQFFLQLNSVTTEDTATYYCARGGYYGYDEGYPMDYWGQGTSVTVSS
VL: NIVLTQSPASLAVSLGQRATISCRASESVDVYGNSFMHWYQQKTGQPPKLLIYLAFNLKSGVPARFSGSGSRTDFTLTIDPVEADDAATYYCQQNNEDPFTFGSGTKLEIK
B19: Hu22F10G3-2.3-QS (antibody, V domains shown)
VH: B15 VH with S68V
VL: B15 VL with N34Q, A64D, T89V
B20: Hu22F10G3-2.3-NA (antibody, V domains shown)
VH: B15 VH with S68V
VL: B15 VL with S35A, A64D, T89V

What follows are binders tested against human KLRB1 ECD (human) (assay: SPR).
Chain of human KLRB1 ECD (human) (chain, as listed by the source): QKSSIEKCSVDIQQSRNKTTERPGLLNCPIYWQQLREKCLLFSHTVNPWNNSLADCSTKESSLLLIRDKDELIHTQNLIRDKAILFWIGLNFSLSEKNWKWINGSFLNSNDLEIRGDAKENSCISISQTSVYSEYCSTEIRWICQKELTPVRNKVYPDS

Kd | Binder
1.55 nM | B1
0.828 nM | B2
0.665 nM | B3
0.229 nM | B4

Target: T1, cynomolgus KLRB1 ECD
Experiment: ELISA

EC50 | Binder
0.0182 nM | B5
0.0108 nM | B6

Target: T1, cynomolgus KLRB1 ECD
Experiment: SPR

Kd | Binder
6.61 nM | B5
3.25 nM | B6

What follows are binders tested against human KLRB1 ECD (human) (assay: ELISA).

EC50 | Binder
0.0221 nM | B5
0.0134 nM | B6

Target: human KLRB1 ECD (human)
Experiment: SPR
Remark: another data set of the same source

Kd | Binder
1.21 nM | B7
0.0147 nM | B8
23.3 nM | B9
0.0521 nM | B4
7.03 nM | B10
3.33 nM | B11
0.575 nM | B12
0.306 nM | B5
17.1 nM | B13
6.38 nM | B14

Target: human KLRB1 ECD (human)
Experiment: SPR
Remark: another data set of the same source

Kd | Binder
0.712 nM | B5
1.04 nM | B6

What follows are binders tested against human KLRB1 on CHO-K1 (human) (assay: FACS).
Chain of human KLRB1 on CHO-K1 (human) (chain, as listed by the source): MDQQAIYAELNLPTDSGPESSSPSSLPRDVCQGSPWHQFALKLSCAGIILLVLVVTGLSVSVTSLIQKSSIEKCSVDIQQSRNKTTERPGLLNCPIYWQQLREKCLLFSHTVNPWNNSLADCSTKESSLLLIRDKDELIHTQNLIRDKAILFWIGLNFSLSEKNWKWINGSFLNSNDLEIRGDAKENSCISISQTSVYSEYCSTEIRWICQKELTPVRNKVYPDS

EC50 | Binder
1.84 nM | B5
2.35 nM | B6

Target: T2, cynomolgus KLRB1 on CHO-K1
Experiment: FACS

EC50 | Binder
2.59 nM | B5
10.8 nM | B6

Target: human KLRB1 ECD (human)
Experiment: ELISA
Remark: another data set of the same source

EC50 | Binder
0.0197 nM | B1
0.0236 nM | B2
0.0113 nM | B3
0.0252 nM | B4

These binders were tested against human KLRB1 on CHO-K1 (human) (assay: competition, CLEC2D, FACS).

IC50 | Binder
2.54 nM | B5
2.32 nM | B6

Target: human KLRB1 on CHO-K1 (human)
Experiment: FACS
Remark: another data set of the same source

EC50 | Binder
5.54 nM | B1
5.44 nM | B2
5.17 nM | B3
5.87 nM | B4

Target: T2, cynomolgus KLRB1 on CHO-K1
Experiment: FACS
Remark: another data set of the same source

binding result | Binder
no binding | B1
no binding | B2
no binding | B3
no binding | B4

Target: human KLRB1 ECD (human)
Experiment: SPR
Remark: another data set of the same source

Kd | Binder
0.129 nM | B15
0.134 nM | B16
0.103 nM | B17
0.0429 nM | B18

Target: human KLRB1 ECD (human)
Experiment: SPR
Remark: another data set of the same source

Kd | Binder
0.653 nM | B19
0.0688 nM | B17
0.14 nM | B20

Target: human KLRB1 ECD (human)
Experiment: SPR
Remark: another data set of the same source

Kd | Binder
0.12 nM | B15
0.124 nM | B16
0.0966 nM | B17
0.0665 nM | B18
